Measurements from publication PMC7826282.

Biological target: mutant forms of RUVBL1 and RUVBL2
Assay: co-IP

co-IP efficiency: < 0.1%
B1: RL-NOP58 (natural protein)
chain: MLVLFETSVGYAIFKVLNEKKLQEVDSLWKEFETPEKANKIVKLKHFEKFQDTAEALAAFTALMEGKINKQLKKVLKKIVKEAHEPLAVADAKLGGVIKEKLNLSCIHSPVVNELMRGIRSQMDGLIPGVEPREMAAMCLGLAHSLSRYRLKFSADKVDTMIVQAISLLDDLDKELNNYIMRCREWYGWHFPELGKIISDNLTYCKCLQKVGDRKNYASAKLSELLPEEVEAEVKAAAEISMGTEVSEEDICNILHLCTQVIEISEYRTQLYEYLQNRMMAIAPNVTVMVGELVGARLIAHAGSLLNLAKHAASTVQILGAEKALFRALKSRRDTPKYGLIYHASLVGQTSPKHKGKISRMLAAKTVLAIRYDAFGEDSSSAMGVENRAKLEARLRTLEDRGIRKISGTGKALAKTEKYEHKSEVKTYDPSGDSTLPTCSKKRKIEQVDKEDEITEKKAKKAKIKVKVEEEEEEKVAEEEETSVKKKKKRGKKKHIKEEPLSEEEPCTSTAIASPEKKKKKKKKRENED
